For series [1] the following is noted: cited from earlier work. The text has this: GPR103 is a Gi/o- and Gq-coupled GPCR expressed in the adrenal gland and various regions of the brain such as the hypothalamus, which plays a crucial role in the regulation of energy metabolism and appetite control. QRFP and GPR103 are implicated in a variety of physiological functions ranging from the modulation of feeding behavior to the regulation of energy homeostasis, cardiovascular function, and bone formation. ... || In the current study, we have not only elucidated the architecture of the receptor but also shed light on the structure of QRFP itself, potentially paving the way for the modulation of QRFP-neurons (Q-neurons)[46]. […] The QRFP-induced hibernation-like state (QIH) provides an unusual model to study metabolic suppression for therapeutic purposes, as well as artificial hibernation. QIH through pharmacogenetics[47] or optogenetics[48] is achievable in murine models, ...

For another series, the system named is GPR103. The note with it: cited from earlier work. From the text: GPR103 is a Gi/o- and Gq-coupled GPCR expressed in the adrenal gland and various regions of the brain such as the hypothalamus, which plays a crucial role in the regulation of energy metabolism and appetite control. […] In this study, we focused on the structural analysis complexed with Gq. To facilitate expression and purification, we truncated the C-terminal residues after G366 of human GPR103. […] (Supplementary Fig. 1a–d and Supplementary Table 1). […] The heptapeptide is conserved from fish to mammals, except for S23 (Supplementary Fig. 6a), consistent with the fact that the S23 side chain poorly interacts with the receptor. The receptor residues interacting with the heptapeptide are highly conserved among the homologs (Supplementary Fig. 6b, c). Accordingly, this observed heptapeptide-TMD interaction plays a key role in evolutionarily conserved GPR103 activation.

A further series addresses GPR103 C98^2.57A (human) (UniProt Q96P65).
The target of series [2] is GPR103 E297^6.59A (human) (UniProt Q96P65).
Chain of GPR103 E297^6.59A (human) (Q96P65 whole entry E297A): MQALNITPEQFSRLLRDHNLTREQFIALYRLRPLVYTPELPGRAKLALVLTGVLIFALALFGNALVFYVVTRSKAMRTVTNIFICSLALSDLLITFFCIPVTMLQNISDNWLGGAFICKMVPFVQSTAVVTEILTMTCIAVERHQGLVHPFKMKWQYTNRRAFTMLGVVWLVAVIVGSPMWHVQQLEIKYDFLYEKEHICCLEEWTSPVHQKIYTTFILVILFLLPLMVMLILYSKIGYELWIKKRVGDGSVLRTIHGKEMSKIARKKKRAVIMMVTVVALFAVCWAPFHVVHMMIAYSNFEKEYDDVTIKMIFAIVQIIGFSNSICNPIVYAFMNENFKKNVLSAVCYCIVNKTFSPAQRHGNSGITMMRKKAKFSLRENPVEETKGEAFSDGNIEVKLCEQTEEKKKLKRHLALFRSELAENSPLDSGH
Series [3] addresses GPR103 T102^2.61 mutant (human) (UniProt Q96P65).
Series [4] addresses GPR103 Q318^7.39A (human) (UniProt Q96P65).
The target of series [5] is GPR103 Q125^3.32 mutant (human) (UniProt Q96P65).
Chain of GPR103 Q125^3.32 mutant (human) (Q96P65 whole entry, change not shown): as the sequence (Q96P65 whole entry E297A) above, with A297E counted along it
Series [6] has as its target GPR103 E203^ECL2A (human) (UniProt Q96P65).
Series [7] deals with GPR103 alanine mutant of F11^N-term (human) (UniProt Q96P65).
Chain of GPR103 alanine mutant of F11^N-term (human) (Q96P65 other isoform, or with tags, fused parts or gaps mutant): as the sequence (Q96P65 whole entry E297A) above, with F11A, A297E counted along it
In series [8] the target is GPR103 alanine mutant of F25^N-term (human) (UniProt Q96P65).
Chain of GPR103 alanine mutant of F25^N-term (human) (Q96P65 other isoform, or with tags, fused parts or gaps mutant): as the sequence (Q96P65 whole entry E297A) above, with F25A, A297E counted along it
Series [9] deals with GPR103 alanine mutant of Y29^N-term (human) (UniProt Q96P65).
Chain of GPR103 alanine mutant of Y29^N-term (human) (Q96P65 other isoform, or with tags, fused parts or gaps mutant): as the sequence (Q96P65 whole entry E297A) above, with Y29A, A297E counted along it

Results on 3 substances are retold here after publication PMC11187126, “Structure and dynamics of the pyroglutamylated RF-amide peptide QRFP receptor GPR103” (Nature Communications, 2024).

Some results are limits rather than exact numbers.

Chain of GPR103 T102^2.61 mutant (human) (Q96P65 whole entry, change not shown): as the sequence (Q96P65 whole entry E297A) above, with A297E counted along it
Chain of GPR103 Q318^7.39A (human) (Q96P65 whole entry Q318A): as the sequence (Q96P65 whole entry E297A) above, with A297E, Q318A counted along it
Chain of GPR103 E203^ECL2A (human) (Q96P65 whole entry E203A): as the sequence (Q96P65 whole entry E297A) above, with E203A, A297E counted along it
Chain of GPR103 C98^2.57A (human) (Q96P65 whole entry C98A): as the sequence (Q96P65 whole entry E297A) above, with C98A, A297E counted along it

For the substance “EDEGSEATGFLPAAGEKTSGPLGNLAEELNGYSRKKGGFSFRF [QRFP43, pyroglutamylated RF-amide peptide, 43-amino acid RF-amide peptide with a pyroglutamylated N-terminus]”, in series [1] (QRFP administration, ref [11]), the “food intake and fat mass (in words)” value is “increased food intake and fat mass”; the “glucose-induced insulin release (in words)” value is given as “reducing glucose-induced insulin release”; the “osteopenia and nociception (in words)” value was “may also cause osteopenia and facilitate nociception”. For the same substance, in series [1] (ref [5]–[7]), the “orexigenic activity (in words)” value was “orexigenic activity”. Moreover, the “hypothermia and metabolism (in words)” value in [1] (ref [46]) was “capable of inducing an extended state of hypothermia and reduced metabolism”. In addition, the “activity for GPR103 (in words)” value with GPR103 (ref [5]–[7]) is “specific activity for GPR103”.

In the case of “GGFSFRF [C-terminal heptapeptide, C-terminal heptapeptide of QRFP26 (GGFSFRF)]”, in the series with GPR103 (ref [27],[28]), the “GPR103 activation (in words)” value is given as “sufficient to activate GPR103” and the “affinity (in words)” value is “reduced affinity”.

As for “QRFP26 (from UniProt P83859 91-136) (peptide)”, the QRFP26-induced activation of GPR103, TGFα shedding assay (reduction of potency against wild type) was 3 fold in the series with GPR103 C98^2.57A (human); 10 fold in [2]; more than 3 fold in [3]; more than 3 fold in series [4]; more than 3 fold in series [5]; 3 fold in series [6]. In addition, the QRFP26-induced activation of GPR103, TGFα shedding assay (reduction of potency against wild type) in series [7], in [8] and in [9] was 10 fold each time.
